From PMC3968096, “Discovering Aptamers by Cell-SELEX against Human Soluble Growth Factors Ectopically Expressed on Yeast Cell Surface”

Target: VEGF165 (soluble) (human, UniProt P15692-4 27-191)
Test: F-EMSA; 1 mM Mg2+; 10 mM HEPES pH 7.9, 125 mM NaCl, 25 mM KCl, 1 mM MgCl2; F-EMSA at room temperature for 2 h, 5% PAGE at 4 C; flow cytometry in the same buffer
Details: protein: recombinant, chain copies: 2, label: 5' fluorescein (F-EMSA), 5' biotin (flow)

VEGF165 (soluble), sequence (P15692 other isoform, or with tags, fused parts or gaps): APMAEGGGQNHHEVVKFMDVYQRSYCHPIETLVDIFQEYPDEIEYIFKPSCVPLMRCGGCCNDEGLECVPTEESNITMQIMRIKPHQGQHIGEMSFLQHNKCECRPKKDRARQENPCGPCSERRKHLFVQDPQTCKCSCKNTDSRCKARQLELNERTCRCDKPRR

B1: hVap1_T1979 (structured_DNA)
DNA: TCTAGCCCACTGCATAGAGGTAGCCACGTATGTGGGTGTTACCCATTCGTAGCTACCGGTG
Kd (predicted stem-loops): 1.7 ± 0.1 nM

TCTAGCCCACTGCATAGAGGTAGCTACCGGTG (structured_DNA) [hVap1_SST]
Kd (stem-loop plus shortened second stem-loop): 2.5 ± 0.2 nM

TCTAGCCCACTGCATAGAGGTAGCCACGTATGTTCGTGGCTACCGGTG (structured_DNA) [hVap1_Stem]
Kd (two predicted stem-loops): 5.6 ± 0.3 nM
